Measurements as given in IntAct's records for PubMed 23063561.

B1: 1-phosphatidylinositol 4,5-bisphosphate phosphodiesterase gamma-1 (Homo sapiens), P19174 (parent)
chain: MAGAASPCANGCGPGAPSDAEVLHLCRSLEVGTVMTLFYSKKSQRPERKTFQVKLETRQITWSRGADKIEGAIDIREIKEIRPGKTSRDFDRYQEDPAFRPDQSHCFVILYGMEFRLKTLSLQATSEDEVNMWIKGLTWLMEDTLQAPTPLQIERWLRKQFYSVDRNREDRISAKDLKNMLSQVNYRVPNMRFLRERLTDLEQRSGDITYGQFAQLYRSLMYSAQKTMDLPFLEASTLRAGERPELCRVSLPEFQQFLLDYQGELWAVDRLQVQEFMLSFLRDPLREIEEPYFFLDEFVTFLFSKENSVWNSQLDAVCPDTMNNPLSHYWISSSHNTYLTGDQFSSESSLEAYARCLRMGCRCIELDCWDGPDGMPVIYHGHTLTTKIKFSDVLHTIKEHAFVASEYPVILSIEDHCSIAQQRNMAQYFKKVLGDTLLTKPVEISADGLPSPNQLKRKILIKHKKLAEGSAYEEVPTSMMYSENDISNSIKNGILYLEDPVNHEWYPHYFVLTSSKIYYSEETSSDQGNEDEEEPKEVSSSTELHSNEKWFHGKLGAGRDGRHIAERLLTEYCIETGAPDGSFLVRESETFVGDYTLSFWRNGKVQHCRIHSRQDAGTPKFFLTDNLVFDSLYDLITHYQQVPLRCNEFEMRLSEPVPQTNAHESKEWYHASLTRAQAEHMLMRVPRDGAFLVRKRNEPNSYAISFRAEGKIKHCRVQQEGQTVMLGNSEFDSLVDLISYYEKHPLYRKMKLRYPINEEALEKIGTAEPDYGALYEGRNPGFYVEANPMPTFKCAVKALFDYKAQREDELTFIKSAIIQNVEKQEGGWWRGDYGGKKQLWFPSNYVEEMVNPVALEPEREHLDENSPLGDLLRGVLDVPACQIAIRPEGKNNRLFVFSISMASVAHWSLDVAADSQEELQDWVKKIREVAQTADARLTEGKIMERRKKIALELSELVVYCRPVPFDEEKIGTERACYRDMSSFPETKAEKYVNKAKGKKFLQYNRLQLSRIYPKGQRLDSSNYDPLPMWICGSQLVALNFQTPDKPMQMNQALFMTGRHCGYVLQPSTMRDEAFDPFDKSSLRGLEPCAISIEVLGARHLPKNGRGIVCPFVEIEVAGAEYDSTKQKTEFVVDNGLNPVWPAKPFHFQISNPEFAFLRFVVYEEDMFSDQNFLAQATFPVKGLKTGYRAVPLKNNYSEDLELASLLIKIDIFPAKENGDLSPFSGTSLRERGSDASGQLFHGRAREGSFESRYQQPFEDFRISQEHLADHFDSRERRAPRRTRVNGDNRL

Variants of: B1
Conditions: with fgfr1_human FGFR1, P11362
Sequence of fgfr1_human FGFR1, P11362 (P11362 whole entry, looked up): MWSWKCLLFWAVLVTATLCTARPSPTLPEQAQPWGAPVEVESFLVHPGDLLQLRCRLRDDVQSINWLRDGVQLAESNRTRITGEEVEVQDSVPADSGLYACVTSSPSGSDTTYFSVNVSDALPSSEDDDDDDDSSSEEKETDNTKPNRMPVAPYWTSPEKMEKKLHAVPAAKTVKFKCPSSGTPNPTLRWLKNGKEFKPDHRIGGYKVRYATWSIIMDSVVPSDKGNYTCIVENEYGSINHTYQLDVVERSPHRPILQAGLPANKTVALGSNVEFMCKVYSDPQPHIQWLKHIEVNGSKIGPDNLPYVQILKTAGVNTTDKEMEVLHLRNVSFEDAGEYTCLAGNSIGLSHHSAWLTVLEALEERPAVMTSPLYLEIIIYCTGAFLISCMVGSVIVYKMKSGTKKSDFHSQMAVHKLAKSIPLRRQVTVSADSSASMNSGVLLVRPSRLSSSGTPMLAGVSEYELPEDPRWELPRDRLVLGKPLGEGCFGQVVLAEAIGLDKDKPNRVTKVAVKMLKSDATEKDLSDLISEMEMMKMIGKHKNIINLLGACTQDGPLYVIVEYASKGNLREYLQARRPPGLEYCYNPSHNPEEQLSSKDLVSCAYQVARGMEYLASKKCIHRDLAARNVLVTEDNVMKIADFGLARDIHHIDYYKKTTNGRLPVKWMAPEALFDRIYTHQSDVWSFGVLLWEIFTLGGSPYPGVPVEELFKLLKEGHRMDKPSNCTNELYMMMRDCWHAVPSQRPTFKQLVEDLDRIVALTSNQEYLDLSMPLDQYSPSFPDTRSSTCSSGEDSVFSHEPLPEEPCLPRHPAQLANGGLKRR

Row | Variant | effect of a mutation on the interaction
1 | R586L | disrupting interaction strength

Variants of: B1
Conditions: with fgfr1_human FGFR1, P11362
Remark: another data set of the same source

Row | Variant | effect of a mutation on the interaction
2 | Y783F | increasing interaction strength
